Test results published in patent US20170304437A1 (ALLIGATOR BIOSCIENCE, published 2017).
Residue numbers refer to the chain shown, from its start. In names and notes the source's numbering stands.

Columns and labels:
[1] = target: T1, CD40-Fc (Ancell # 504-820) (human, UniProt P25942 21-193); assay: binding ELISA, CD40-Fc coated, one fixed concentration (100 ng/ml), anti-human IgG Fc-HRP
T1 construct: Bought reagent; also called human CD40; not shown: Fc part of the bought fusion
Procedure: (§1) In short, 96-well flat bottom plate high binding plates (Greiner #655074) were coated with CD40-Fc (Ancell # 504-820) by incubating overnight at 4° C. The plates were washed (Wash buffer: PBS+0.05% Tween 20 (PBST) Medicago #09-9410-100) and then blocked in PBST+3% BSA (Merck, #1.12018.0100). The plates were washed again and samples or control (serial dilutions 1/2, starting at 0.2 ug/ml) were added to the wells.
(§2) The samples were incubated for 1 h at room temperature and then washed. Detection antibody, goat-anti-human IgG Fcγ-HRP (Jackson, #109-035-098) was added and the plates were subsequently developed using SuperSignal Pico Chemiluminescent substrate (Thermo #37069) and detected with Envision reader (Perkin Elmer). In FIG. 6A the binding of bispecific molecules at different concentrations to CD40 coated onto an ELISA plate is shown. In FIG. 6B, the binding of bispecific molecules at one fixed concentration (100 ng/ml) to CD40 coated onto an ELISA plate is shown. The bispecific molecules bind specifically to CD40.

[2] = target: T1, CD40-Fc (Ancell # 504-820); assay: binding ELISA, CD40-Fc coated, one fixed concentration, anti-human IgG Fc-HRP
Procedure: as §1, §2

[3] = target: T1, CD40-Fc (Ancell # 504-820); assay: binding ELISA, CD40-Fc coated, sample titrated, anti-human IgG Fc-HRP, chemiluminescence
Procedure: as §1, §2

[4] = target: T2, human CTLA4-Fc (Fitzgerald #30R-CD152) (human, UniProt P16410 38-152); assay: binding ELISA, CTLA4-Fc coated, sample titrated, anti-human IgG Fc-HRP, chemiluminescence, data normalised to % [both panels]
T2 construct: Bought reagent; also called biotinylated-CTLA4; human CTLA-4 (Fitzgerald); not shown: Fc part of the bought fusion
Procedure: (§3) The plates were washed (Wash buffer: PBS+0.05% Tween 20 (PBST) Medicago #09-9410-100) and then blocked in PBST+3% BSA (Merck, #1.12018.0100). The plates were washed again and sample or controls (serially diluted 1/3 from 50 000-0001 nM) were added to the wells. The samples were incubated for 1 h at room temperature and then washed. Detection antibody, goat-anti-human IgG Fγy-HRP (Jackson, #109-035-098) was added and the plates were subsequently developed using SuperSignal Pico Chemiluminescent substrate (Thermo #37069) and detected with an Envision reader (Perkin Elmer).

[5] = target: T3, CD28-Fc (provided by Simon Davis, Oxford University) (human, UniProt P10747 19-152, limits assumed); assay: binding ELISA, coated CD28-Fc
T3 construct: Gift reagent; not shown: Fc part
Procedure: as §3

[6] = target: T2, human CTLA4-Fc (Fitzgerald #30R-CD152); assay: binding ELISA, CTLA4-Fc coated, sample titrated, anti-human IgG Fc-HRP, chemiluminescence, data normalised to % [upper panel]
Procedure: as §3

[7] = target: T2, human CTLA4-Fc (Fitzgerald #30R-CD152); assay: binding ELISA, CTLA4-Fc coated, sample titrated, anti-human IgG Fc-HRP, chemiluminescence, data normalised to % [lower panel]
Procedure: as §3

CD40-Fc (R&D #1493-CD) = target: T4, CD40-Fc (R&D #1493-CD) (human, UniProt P25942 21-193); assay: SPR (Biacore 3000), CD40-Fc immobilised, control antibody injected
T4 construct: Bought reagent immobilised on the Biacore chip; also called human CD40; not shown: Fc part of the bought fusion
Procedure: CD40-Fc (R&D #1493-CD) was immobilized to the BIAcore sensorship, CMS, using conventional amine coupling. 0.5 uM Bispecific construct (957/530) was injected over immobilized CD40 for 3 minutes and the dissociation was followed for 3 minutes. 2.17 uM CTLA4-Fc (Orencia, Bristol-Mayers Squibb) was injected over the CD40-Bispecific complex for 3 minutes and the dissociation phase was followed for 3 minutes. The chip was finally regenerated using 10 mM Glycine, pH 1.7. A Biacore 3000 instrument was used according to the manufacturer's protocols.

[8] = target: T5, CTLA4-Fc (Orencia, Bristol-Mayers Squibb) (human, UniProt P16410 38-152); assay: dual ELISA: CD40-Fc coated, antibody at 0.2 ug/ml captured, biotinylated CTLA4-Fc titrated, streptavidin-HRP
T5 construct: Commercial drug Orencia; Biotinylated in the dual ELISA; also called soluble CTLA-4; human CTLA-4; not shown: Fc part of Orencia
Procedure: In short, 96-well flat bottom plate high binding plates (Greiner #655074) were coated with CD40-Fc (Ancell # 504-820) by incubating overnight at 4° C. The plates were washed (Wash buffer: PBS+0.05% Tween 20 (PBST) Medicago #09-9410-100) and then blocked in PBST+3% BSA (Merck, #1.12018.0100). […] The samples were incubated for 1 h at room temperature and then washed.

[9] = target: T2, human CTLA4-Fc (Fitzgerald #30R-CD152); assay: binding ELISA, CTLA4-Fc coated, sample titrated, anti-human IgG Fc-HRP, chemiluminescence
Procedure: as §3, with “The plates were washed again and sample or controls (serially diluted 1/3 from 50 000-0001 nM) were added to the wells.” left out, “Fcγ-HRP” for “Fγy-HRP”, “with” for “with an”

T1 sequence (P25942 21-193 limits assumed): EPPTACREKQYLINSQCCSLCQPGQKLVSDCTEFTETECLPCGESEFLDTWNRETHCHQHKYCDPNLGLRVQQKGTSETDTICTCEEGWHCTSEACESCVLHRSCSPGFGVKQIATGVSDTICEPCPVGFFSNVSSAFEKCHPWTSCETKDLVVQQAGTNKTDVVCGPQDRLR
T2 sequence (P16410 38-152 limits assumed): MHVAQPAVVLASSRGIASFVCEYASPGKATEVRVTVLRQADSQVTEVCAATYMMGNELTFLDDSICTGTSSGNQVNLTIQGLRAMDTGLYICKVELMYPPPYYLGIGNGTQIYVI
T4 sequence (P25942 21-193 limits assumed): as the sequence (P25942 21-193 limits assumed) above
T5 sequence (P16410 38-152 limits assumed): as the sequence (P16410 38-152 limits assumed) above

B1: Bispecific polypeptide 958/531 (bispecific antibody, human IgG1, kappa)
heavy: not shown
light: QSVLTQPPSASGTPGQRVTISCSGSSSNIGSNTVNWYQQLPGTAPKLLIYRNNQRPSGVPDRFSGSKSGTSASLAISGLRSEDEADYYCAAWDDSLSGWRFGGGTKLTVLGGTVAAPSVFIFPPSDEQLKSGTASVVCLLNNFYPREAKVQWKVDNALQSGNSQESVTEQDSKDSTYSLSSTLTLSKADYEKHKVYACEVTHQGLSSPVTKSFNRGEC
Q: Does B1 bind [1]?
A: Result: binds

B2: isolated polypeptide of amino acid sequence SEQ ID NO: 8 (soluble CTLA-4 binding domain reference 904) (ligand)
chain: LKIQAYFNETADLPCQFANSQNQSLSELIVFWQDQENLVLNEVYLGKERFDAVDSKYMGRTSFDSDSWTLRLHNLQIKDKGIYQCIIHHKKPSGMVKIHQMDSELSVLA
notes: Control in the CD40 ELISA
Q: Does B2 bind [2]?
A: Result: no binding (tested: 100 ng/ml (not on the sheet))

B3: Bispecific polypeptide 956/530 (bispecific antibody, human IgG1, kappa)
light: QSVLTQPPSASGTPGQRVTISCSGSSSNIGSNTVNWYQQLPGTAPKLLIYRNNQRPSGVPDRFSGSKSGTSASLAISGLRSEDEADYYCAAWDDSLSGWRFGGGTKLTVLGGTVAAPSVFIFPPSDEQLKSGTASVVCLLNNFYPREAKVQWKVDNALQSGNSQESVTEQDSKDSTYSLSSTLTLSKADYEKHKVYACEVTHQGLSSPVTKSFNRGECSGGGGSGGGGSLKIQAYFNETADLPCQFANSQNQSLSELIVFWQDQENLVLNEVYLGKERFDAVDSKYMGRTSFDSDSWTLRLHNLQIKDKGIYQCIIHHKKPSGMVKIHQMDSELSVLA
heavy: not shown
Q: Does B3 bind [3]?
A: Result: binds

B4: Bispecific polypeptide 959/530 (bispecific antibody, human IgG1, kappa)
light: LKIQAYFNETADLPCQFANSQNQSLSELIVFWQDQENLVLNEVYLGKERFDAVDSKYMGRTSFDSDSWTLRLHNLQIKDKGIYQCIIHHKKPSGMVKIHQMDSELSVLAKRTVAQSVLTQPPSASGTPGQRVTISCSGSSSNIGSNTVNWYQQLPGTAPKLLIYRNNQRPSGVPDRFSGSKSGTSASLAISGLRSEDEADYYCAAWDDSLSGWRFGGGTKLTVLGGTVAAPSVFIFPPSDEQLKSGTASVVCLLNNFYPREAKVQWKVDNALQSGNSQESVTEQDSKDSTYSLSSTLTLSKADYEKHKVYACEVTHQGLSSPVTKSFNRGEC
heavy: not shown
Q: Does B4 bind [1]?
A: Result: binds

B5: Bispecific polypeptide 960/530 (bispecific antibody, human IgG1, kappa)
light: B4 light with K110N, R111F, T112S, V113Q, A114P
heavy: not shown
Q: Does B5 bind [1]?
A: Result: binds

B6: wild type human CD86 soluble extracellular domain (control in Examples 2 and 4) (ligand)
chain: APLKIQAYFNETADLPCQFANSQNQSLSELVVFWQDQENLVLNEVYLGKEKFDSVHSKYMGRTSFDSDSWTLRLHNLQIKDKGLYQCIIHHKKPTGMIRIHQMNSELSVLA
notes: probably the same Fc fusion as the clones; also called wild-type protein CD86; wild type CD86; not shown: the clones it is compared with were gamma2/gamma4 Fc fusions and detection was by anti
Q: With B6 as the binder, how does the “EC50 (read off the curve)” value [4] read?
A: The value was ~0.5 µg/mL.

B7: CD86 mutant clone 1038, gamma2/gamma4 fusion (Fc fusion)
chain: B6 chain with Q25L, H56D, L84I, I98V, R99K, Q102E
notes: Expressed as gamma2/gamma4 fusion, protein A purified; not shown: gamma2/gamma4 Fc
Q: Does B7 bind [5]?
A: Result: no binding

Q: What about the “EC50 (read off the curve)” value [6] of the same binder?
A: The value was ~0.1 µg/mL.

B8: CD86 mutant clone 1043, gamma2/gamma4 fusion (Fc fusion)
chain: B6 chain with Q25L, H56D, L84I, R99K, Q102E
notes: as for B7
Q: What does the source list for B8?
A: binding result [5]: no binding; EC50 (read off the curve) [7]: ~0.04 µg/mL

B9: CD86 mutant clone 1046, gamma2/gamma4 fusion (Fc fusion)
chain: B6 chain with H56D, K80E, L84I, T95S, I98V, R99K, N104D
notes: as for B7
Q: Does B9 bind [5]?
A: Result: no binding

Q: What about the “EC50 (read off the curve)” value [7] of the same binder?
A: Its value is ~0.02 µg/mL.

B10: CD86 mutant clone 1047, gamma2/gamma4 fusion (Fc fusion)
chain: B6 chain with Q25L, H56D, L84I, M97L, I98V, R99K, Q102E
notes: as for B7
Q: Does B10 bind [5]?
A: Result: no binding

B11: CD86 mutant clone 1044, gamma2/gamma4 fusion (Fc fusion)
chain: B6 chain with Q25L, S26T, H56S, L84I, R99K, Q102E, N104S
notes: as for B7
Q: Does B11 bind [5]?
A: Result: no binding

Q: And the “EC50 (read off the curve)” value [7]?
A: Its value is ~0.03 µg/mL.

B12: CD86 mutant clone 1041, gamma2/gamma4 fusion (Fc fusion)
chain: B6 chain with F9L, Q25L, H56D, L84I, M97L, I98V, R99K, Q102E
notes: as for B7
Q: What does the source list for B12?
A: binding result [5]: no binding; EC50 (read off the curve) [6]: ~0.09 µg/mL

B13: CD86 mutant clone 1045, gamma2/gamma4 fusion (Fc fusion)
chain: B6 chain with Q25L, S26T, H56D, M97L, I98V, R99K, Q102E
notes: as for B7
Q: Does B13 bind [5]?
A: Result: no binding

Q: And the “EC50 (read off the curve)” value [7]?
A: The value was ~0.05 µg/mL.

B14: CD86 H79A mutant (Peach et al) control clone (ligand)
chain: B6 chain with H56A
notes: also called Prior Art; not shown: probably the same gamma2/gamma4 Fc fusion
Q: With B14 as the binder, how does the “EC50 (read off the curve)” value [4] read?
A: Its value is ~0.8 µg/mL.

B15: CD86 mutant clone 1039, gamma2/gamma4 fusion (Fc fusion)
chain: B6 chain with Q25L, H56S, L84I, T95S, I98V, R99K, N104D
notes: as for B7
Q: Does B15 bind [5]?
A: Result: no binding

Q: What about the “EC50 (read off the curve)” value [6] of the same binder?
A: The value was ~0.04 µg/mL.

B16: Antibody A2-54 (monospecific anti-CD40) (antibody, human IgG1, kappa, V domains shown)
VH: EVQLLESGGGLVQPGGSLRLSCAASGFTFSDYYMSWVRQAPGKGLEWISSISSNGIYIYYADSLKGRFTISRDNSKNTLYLQMNSLRAEDTAVYYCARAPVDYSNPSGMDVWGQGTLVTVSS
VL: not shown
notes: VH-gamma1 / VL-kappa; also called control Ab
Q: Does B16 bind (CD40-Fc (R&D #1493-CD))?
A: Result: binds

Q: Does B16 bind [8]?
A: Result: no binding (tested: 20 µg/mL of hCTLA-4-bio)

Q: Does B16 bind [9]?
A: Result: no binding (tested: log 1.2 µg/mL (about 16 µg/mL))

B17: Bispecific polypeptide 957/530 (bispecific antibody, human IgG1, kappa)
light: QSVLTQPPSASGTPGQRVTISCSGSSSNIGSNTVNWYQQLPGTAPKLLIYRNNQRPSGVPDRFSGSKSGTSASLAISGLRSEDEADYYCAAWDDSLSGWRFGGGTKLTVLGGTVAAPSVFIFPPSDEQLKSGTASVVCLLNNFYPREAKVQWKVDNALQSGNSQESVTEQDSKDSTYSLSSTLTLSKADYEKHKVYACEVTHQGLSSPVTKSFNRGECSGGGGSGGGGSAPLKIQAYFNETADLPCQFANSQNQSLSELIVFWQDQENLVLNEVYLGKERFDAVDSKYMGRTSFDSDSWTLRLHNLQIKDKGIYQCIIHHKKPSGMVKIHQMDSELSVLA
heavy: not shown
Q: With B17 as the binder, how does the “EC50 (read off the curve)” value [3] read?
A: The value was ~0.2 µg/mL.
